# Results published in the DeepSol protein solubility set.
# Experiment: soluble on expression in E. coli; label from the status in PepcDB or PDB records
row,Sequence,soluble on expression in E. coli
1,QPTAQQQLTKPAKITCANCKKPLQKGQTAYQRKGSAHLFCSTTCLSSFS,soluble
2,QQQHKVLKTVKVTEQLKHCSEILKEMLAKKHLPYAWPFYNPVDADALGLHNYYDVVKNPMDLGTIKGKMDNQEYKDAYEFAADVRLMFMNCYKYNPPDHEVVAMARTLQDVFELHFAKIPDEPIES,soluble
3,QRNGFCRLPADEGICKALIPRFYFNTETGKCTMFSYGGCGGNENNFETIEECQKACGAPERVNDFESADFKTGCEPAADSGSCAGQLERWFYNVQSGECETFVYGGCGGNDNNYESEEECELVCKNM,soluble
4,QVQLLESGAELVKPGASVKLSCKASGYTFTSYWMHWVKQRPGRGLEWIGRIDPNSGGTKYNEKFKSKATLTVDKPSSTAYMQLSSLTSEDSAVYYCTRRDSDYWGAGTTVTVSSASTKGPSVFPLAPSSKSTSGGTAALGCLVKDYFPEPVTVSWNSGALTSGVHTFPAVLQSSGLYSLSSVVTVPSSSLGTQTYICNVNHKPSNTKVDKKVEPKSCDKT,soluble
5,QVQLQQSGAELMKPGASVKISCKATGYTFSSYWIAWVKQRPGHGLEWIGEILPGSGSTNYNEKFKGKATFTADTSSNTAYMQLSSLTSEDSAVYYCARSPYYYGNWDYWGQGTTLTVSSAKTTPPSVYPLAPGSAAQTNSMVTLGCLVKGYFPEPVTVTWNSGSLSSGVHTFPAVLQSDLYTLSSSVTVPSSTWPSETVTCNVAHPASSTKVDKKIVPRDC,soluble
6,QVQSVEVMRDSYGVPHVFADSHYGLYYGYGYAVAQDRLFQMDMARRSFVGTTAAVLGPGEQDAYVKYDMQVRQNFTPASIQRQIAALSKDERDIFRGYADGYNAYLEQVRRRPELLPKEYVDFDFQPEPLTDFDVVMIWVGSMANRFSDTNLEVTALAMRQSLEKQHGPERGRALFDELLWINDTTAPTTVPAPAA,soluble
7,RALDTEDIQKVFTKLPQSSAVTSDMRRTQELFVLMFLLRGLPFVDLAYLRKSDLHDNVITYRRRKTGRPLSVTLTPEAMAILKRYMNRDTSSPYLFPLLNSREGTKEAYHEYQLALRNFNRQLMLLGEMLGLGDKLSSYTARHTWATTAYYCEIHPGVISEAMGHSSITVTETYLKPFRNKKIDEANKKVVDFIKRSIPIAMC,not soluble
8,RDHRKIGKQLDLYHMQEEAPGMVFWHNDGWTIFRELEVFVRSKLKEYQYQEVKGPFMMDRVLWEKTGHWDNYKDAMFTTSSENREYCIKPMNCPGHVQIFNQGLKSYRDLPLRMAEFGSCHRNEPSGSLHGLMRVRGFTQDDAHIFCTEEQIRDEVNGCIRLVYDMYSTFGFEKIVVKLSTRPEKRIGSDEMWDRAEADLAVALEENNIPFEYQLGEGAFYGPKIEFTLYDCLDRAWQCGTVQLDFSLPSRLSASYVGEDNERKVPVMIHRAILGSMERFIGILTEEFAGFFPTWLAPVQVVIMNITDSQSEYVNELTQKLSNAGIRVKADLRNEKIGFKIREHTLRRVPYMLVCGDKEVESGKVAVRTRRGKDLGSMDVNEVIEKLQQEIRSRSLKQLEE,soluble
9,RDILEVLQDIHMETGETVAIATKNDIYLQYIQIIESVHALRFHVDENAIRPLTMSSNGWMLMSTMNDKAIDNTVRRANTITQKDGIRFEVDDMMARIRQVREQGYASAEHIPFVGGGTICVLLPMTIQGQPVTMGLGGALDRIKQNYDRYLELLLNGVQQLKKSDSFHQPIELAH,not soluble
10,REGMNTIARNLGITCSADIGLISIEYTCFSNNLSYTQVLSLPKTGVNTDKLDQMERFVKEFGNDCSSLTIRQIHNKLDTVQRK,not soluble
11,RESLGRDVMVVVDLSGSMAEQDFVSKQSSDLGAVKKISRLEATKEVLADFVKTRKGDRLGLILFGDAAFVQTPFTADQSVWLELLNQTDVAMAGQSTHLGDAIGLAIKVFEQSSEDKASAEENAKPREKVAIVLTDGNDTGSYVEPIDAAKVAAAKDVRIHMIAMGDPRTVGEQALDMNIINRVAKESGGKAFQAINRDELEQAYDEIGELEPQLYE,not soluble
12,REVLARDREVLRSVYGILVQAHYRNTPDDLLAMLESPHHRIYALEADGTPVAVADVVLEGPDVEEEARIALERLLYMAGSPGSGVVSWRVSRIAVHEDLQRRGLGSRLLRHVEAQARESGASLVTTMFSRHDVIPFWLKNGFKPFYVSPRYNRVTGEKNVALAKPLDSAGA,not soluble
13,RIVLQTSAHTLGDVVVTGYQTLERRKLTAAISKVEVSDAMVGAAKSIDQALTGQIAGVSVTNTSGAPGSPAKIRIRGTASMNGTQDPLWVLDGIPLEGTDIPKMDNKSSDNDIVNIGQSSIAGLSPNDIESITILKDAAATAIYGARAANGVIVVTTKRGKTGK,not soluble
14,RKDFTKEEVNYLFHGVKTMGNHWNSILWSFPFQKGRRAVDLAHKYHRLI,soluble
15,RKQAEEKLVASERFLRMLTNQLPGMVGYWDRDLRCRFANDAYKEWFGRSPEQIIGLTVQELMGEELFRLSEPYIRGALQGEPQNFERELVKPNGETGYTWAQYIPDMVNDKAIGFFVLISDVT,not soluble
16,RLFGDNVVALAGDAGFRTYWLSNQARLGRYDTPVTAMANMAHFKTWADAPYDEALLPLLDAALAEPGRKVVFLHINGNHDNYCTRYPETATVYQGGAPYEDCYDNSIRYVDALLGAVMDRLGERRASLLFYPDHGLERHESVLGTFYHGGVRPSREAFDIPMFIWNSPAAPAPARREYDAPYSTEDNYGLILDWLG,not soluble
17,RLKNPKIKQGGEWMDVDWKTALEYVRSAIECIAKDGNQNQVGVWANPMNTVEELYLAKKFADGLGVKNFATRLRQQDKRLSDGLKGAQWLGQSIESLADNDAVLVVGANLRKEQPLLTARLRRAAKDRMALSVLAGSKEELFMPLLSQEAAHPDEWAGRLKNLSADAEHAVTASLKNAEKAAVILGAEVQNHPDYAAIYAAAQELADATGAVLGILPQAANSVGADVLGVNSGESVAEMANTPKQAVLLLNVEPEIDTVDGAKAVAALKQAKSVMAFTPFVSETLLDVCDVLLPIAPFTETSGSFINMEGRLQSFHGVVQGFGDSRPMWKVLRVLGNLFDLKGFEYHDTAAILKDALD,not soluble
18,RLQPIIVPGWQGSGPGHWQTHWSRTLPHAVRLQQRDWHQPQRAEWVAALAAAVDAAPTPVLLVAHSLGCLVSAALPIALRAKVAGALLVAPADVERPGAPAAIAAFGPVPRQSLPYQSVVIASDDDPYCRLERARQFAQDWGSRLVVLQGAGHINADSQLGAWPQGLKQLAALRRRACW,not soluble
19,RLQSRILAGLLHTVVRYRRKVVRDNLTRCFPEKSLQEIRRIERRFYYNFTYQILSSFKLLTYSQAQLRRHISFENLDVLIRLRAEGHPAILLMMGHFGNWEYFSGSQAIIKDLGLQIYQIFRPLKSTSSDRLMHRIRERFGSRGIAKHDVPRELLRLVRNPIPTETP,not soluble
20,RPGGDAREPRKIILHKGSTGLGFNIVGGEDGEGIFVSFILAGGPADLSGELRRGDRILSVNGVNLRNATHEQAAAALKRAGQSVTIVAQYRPEEYSRFES,soluble
21,RPRNALLLLADDGGFESGAYNNSAIATPHLDALARRSLLFRNAFTSVSSCSPSRASLLTGLPQHQNGMYGLHQDVHHFNSFDKVRSLPLLLSQAGVRTGIIGKKHVGPETVYPFDFAYTEENGSVLQVGRNITRIKLLVRKFLQTQDDRPFFLYVAFHDPHRCGHSQPQYGTFCEKFGNGESGMGRIPDWTPQAYDPLDVLVPYFVPNTPAARADLAAQYTTVGRMDQGVGLVLQELRDAGVLNDTLVIFTSDNGIPFPSGRTNLYWPGTAEPLLVSSPEHPKRWGQVSEAYVSLLDLTPTILDWFSIPYPSYAIFGSKTIHLTGRSLLPALEAEPLWATVFGSQSHHEVTMSYPMRSVQHRHFRLVHNLNFKMPFPIDQDFYVSPTFQDLLNRTTAGQPTGWYKDLRHYYYRARWELYDRSRDPHETQNLATDPRFAQLLEMLRDQLAKWQWETHDPWVCAPDGVLEEKLSPQCQPLHNEL,soluble
22,RSDTIMVLSINPKEKKTELVSIPRDTKAEIAGRGTEEKINHAYAYGGPNMAVKTIEKLMNVPIDHYATIDMDGLHDMIDTLGGVDVVSNSTFTMGANHFVKGEKTHVDGDAAMDFIRSRKEDGAGGDFGRQERQQLILEAMADKLTS,not soluble
23,RSFAKDLEAKQKMSLTSWFLVSSGGTRHRLPREMIFVGRDDCELMLQSRSVDKQHAVINYDASTDEHLVKDLGSLNGTFVNDVRIPEQTYITLKLEDKLRFGYDTNLFTVVQGEMRVPEEALKHEKFTIQLQLSQKSSESELSKSASAKSIDSKVADAATEVQHKTTEALKSEEKAMDISAMPRGTPLYGQPSWWGDDEVDEKRAFKTNGKPEEKNHEAGTSGCSIDAKQVEEQSAAANEEVLFPFCREPSYFEIPTKEFQQPSQITESTIHEIPTKDTPSSHITGAGHASFTIEFDDSTPGKVTIRDHVTKFTSDQRHKSKKSSPGTQDLLGIQTGMMAPENKVADWLAQNNPPQMLWERTEEDSKSIKSDVPVYLKRLKGNKHDDGTQSDSENAGAHRRCSKRATLEEHLRRHHSEHKKLQKVQATEKHQDQAVVFGVDDNQDYNRPVINEKHKDLIKDWALSSAAAVMEERKPLTTSGFHHSEEGTSSSGSKRWVSQWASLAANHTRHDQEERIMEFSAPLPLENETEISESGMTVRSTGSATSLASQGERRRRTLPQLPNEEKSLESHRAKVVTQRSEIGEKQDTELQEKETPTQVYQKDKQDADRPLSKMNRAVNGETLKTGGDNKTLLHLGSSAPGKEKSETDKETSLVKQTLAKLQQQEQREEAQWTPTKLSSKNVSGQTDKCREETFKQESQPPEKNSGHSTSKGDRVAQSESKRRKAEEILKSQTPKGGDKKESSKSLVRQGSFTIEKPSPNIPIELIPHINKQTSSTPSSLALTSASRIRERSESLDPDSSMDTTLILKDTEAVMAFLEAKLREDNKTDEGPDTPSYNRDNSISPESDVDTASTISLVTGETERKSTQKRKSFTSLYKDRCSTGSPSKDVTKSSSSGAREKMEKKTKSRSTDVGSRADGRKFVQSSGRIRQPSVDLTDDDQTSSVPHSAISDIMSSDQETYSCKPHGRTPLTSADEHVHSKLEGSKVTKSKTSPVVSGSSSKSTTLPRPRPTRTSLLRRARLGEASDSELADADKASVASEVSTTSSTSKPPTGRRNISRIDLLAQPRRTRLGSLSARSDSEATISRSSASSRTAEAIIRSGARLVPSDKFSPRIRANSISRLSDSKVKSMTSAHGSASALKTTRLQSAGSAMPTSSSFKHRIKEQEDYIRDWTAHREEIARISQDLALIAREINDVAGEIDSVTSSGTAPSTTVSTAATTPGSAIDTREEVGDLHGEMHKLVDRVFDESLNFRKIPPLVHSKTPEGNNGRSGDPRPQAAEPPDHLTITRRRTWSRDEVMGDNLLLSSVFQFSKKIRQSIDKTAGKIRILFKDKDRNWDDIESKLRAESEVPIVKTSSMEISSILQELKRVEKQLQAINAMIDPDGTLEALNNMGFPSAMLPSPPKQKSSPVNNHHSPGQTPTLGQPEARALHPAAVSAAAEFENAESEADFSIHFNRFNPDGEEEDVTVQE,soluble
24,SAKTDKLAQFLDSGIYESDEFNWFFLDTVRITNRSYTRFKVSPSAYYSRFFNSKQLNQHSSESNPKKRKRKQKNSSFHLPSVGEQASNLRHQEARLFLSKAHESFLKEIELLSLTKGLSDDNDDDDSSLLNKCCDDEVSFIELGGVWQAPFYEITLSFNLHCDNEGESCNEQRVFQVFNNLVVNEIGEEVEAEFSNRRYIMPRNSCFYMSDLHHIRNLVPEKISHYHIGRRCNSLIDVIYAAKSEEGYNLIVIDPPWENASAHQKSKYPTLPNQYFLSLPIKQLAHAEGALVALWVTNREKLLSFVEKELFPAWGIKYVATMYWLKVKPDGTLICDLDLVHHKPYEYLLLGYHFTELAGSEKRSDFKLLDKNQIIMSIPGDFSRKPPIGDILLKHTPGSQPARCLELFAREMAAGWTSWGNEPLHFQDSRYFLKV,soluble
